Measurements as given in publication PMC9844538 (Nature chemical biology, 2022).

Target: MtbGyrBAcore(Y129F) (Mycobacterium tuberculosis, UniProt P9WG45 426-675+P9WG47:2-500, Y129F;internal_change)
Test: X-ray crystallography

B1: singly nicked duplex with GAA triloop ends (structured_DNA)
DNA: GGCCCTACGGCTGAAAGCCGTAGGGCCCTACGGCTGAAAGCCGTAG
binding result: binds
